Reference: patent US11932880B2, “Enzyme and method for assaying pentosidine using same” (priority 2018, dated 2024)

Tests used:
[1] = Pentosidine quantitative test (DA-67/peroxidase, A658, Bio Majesty JCA-BM1650); format: biochemical; conditions: 0.2-4.0 μM pentosidine solutions, 37° C., 5 minutes; ΔA658 correlated with final pentosidine concentration (FIG. 4)
Procedure: The following reagents were prepared to measure pentosidine by using Bio Majesty JCA-BM1650 (manufactured by JEOL Ltd.).
0.2 μM, 0.4 μM, 0.6 μM, 1.0 μM, 2.0 μM or 4.0 μM pentosidine solution
25 μL of the sample was added to 50 μL of the first reagent, and the resultant was incubated at 37° C. for 5 minutes. Then, 25 μL of the second reagent was added thereto to allow a pentosidine oxidation reaction owing to PenOX2 and a detection reaction for hydrogen peroxide generated through the reaction to proceed at 37° C. for 5 minutes.
In the detection reaction for hydrogen peroxide, simultaneously with consumption of […], DA-67 is oxidized into methylene blue to present the color, and the absorbance (A658) is increased. As an example, the relationship between the elapsed time after the mixture of the sample (4.0 μM pentosidine solution) and the first reagent and the absorbance (A658) is shown in FIG. 3. It was confirmed that A658 increased immediately after the addition of the second reagent containing PenOX2.
Subsequently, an A658 increment (AA) caused by the oxidation of pentosidine was calculated in accordance with the following equation: ΔA=(absorbance 5 min after addition of second reagent)−(absorbance immediately before addition of second reagent×0.75)

[2] = Enzyme activity measurement with pentosidine as substrate (A555 change, U/mL); format: biochemical; conditions: 37° C.; for pentosidine oxidase activity: purchased enzymes at 1 mg/mL, potassium phosphate buffer pH 7.5, 100 mM; for specific activity, as a reference value (pentosidine oxidase): 1 mg of powder dissolved in 1 mL deionized water
Procedure: 600 μL of an arbitrary buffer, 400 μL of deionized water solution in which 3.99 U/mL peroxidase, 1.8 mM 4-aminoantipyrine and 2 mM TOOS were dissolved, and 150 μL of deionized water were incubated at an arbitrary temperature for 10 minutes. Then, 50 μL of the enzyme solution having been stored on ice and 400 μL of a solution of 4 mM pentosidine dissolved in a 100 mM potassium phosphate buffer (pH 8.0) having been incubated at an arbitrary temperature for 10 minutes were added thereto, followed by stirring and reacting at an arbitrary temperature for 3 minutes. A change over time of A555 during the reaction was measured using a spectrophotometer (U-3900, manufactured by Hitachi High-Tech Science Corporation). An elapsed time from the start of the measurement of 20 seconds to 60 seconds—A555 change was regarded as an activity value.
Besides, an amount of the enzyme generating 1 μmol of hydrogen peroxide per minute at 37° C. was defined as one unite (U), and the activity was calculated in accordance with the following equation. Activity (U/mL)={(ΔAs−ΔA0)×1.6×df}/(39.2×0.5×0.05) • ΔAs: change of A555 per minute of reaction solution • ΔA0: change of A555 per minute of control experiment • 1.6: volume (mL) of whole reaction solution • df: dilution factor • 39.2: millimolar absorbance coefficient (mM^−1-cm-1) of quinoneimine pigment generated through reaction • 0.5: molar number of quinoneimine pigment generated by 1 mol of hydrogen peroxide • 0.05: volume (mL) of enzyme solution
A 50 mM citric acid-100 mM potassium phosphate buffer (pH 4.0 to 7.5, a final concentration), a potassium phosphate buffer (pH 6.5 to 8.0, a final concentration of 100 mM), and a glycine buffer (pH 8.0 to 11.0, a final concentration of 100 mM) were prepared, and these were used to perform an enzymatic reaction at respective pH at a temperature of 37° C. […] Therefore, it was determined that the optimum pH of PenOX2 is pH 6.5 to 8.0, and that the most suitable optimum pH is pH 7.5.
A potassium phosphate buffer (pH 7.5) having a final concentration of 50 mM was used to perform the activity measurement of PenOX2 at various temperatures. The highest activity was obtained around 50° C., and a temperature range for attaining 80% or more of this highest activity was 37° C. to 50° C. Therefore, it was determined that the range of the optimum temperature of PenOX2 is 37° C. to 50° C.
The above-described activity measurement method was employed to perform activity measurement using a potassium phosphate buffer (final pH in the activity measurement: pH 7.5, final concentration of 50 mM) at 37° C., and an activity value (U/mL) was obtained by using the aforementioned equation.
As described above, both PenOX1 and PenOX2 had the pentosidine oxidase activity. […] Subsequently, the following three enzymes were purchased, and the above-described activity measurement method was employed for confirming their pentosidine oxidase activity using a potassium phosphate buffer (pH 7.5, final concentration of 100 mM) at 37° C. The amino acid sequence homologies with PenOX1 and PenOX2 and the pentosidine oxidase activities of these enzymes were as follows.

B1: PenOX1: protein having the amino acid sequence of SEQ ID NO: 2, pentosidine oxidase from Sarocladium sp., gene g4462 (protein, listed as Sarocladium sp.)
chain: MKSPSLAVAGLLLGSSSLSHATQLRIETRKSLNSRIANVHIDVDAPVAHQVVFTYGPCDSESQENAHHVIAQSQKLEGRKPHRLIWTMPKDLHPDDCISAWGESGDLLGRSVPQKVAHKEMRRRKRDDSDYSIPMNSSSGIDVYGPWFDGVALLEKSDNHNVDVEAAKAKEIAIVGAGMAGLTTYFILSEAGLSNLTILEASGRLGGRVRTEYLSGGPRDHSYAEMGPMRIPYQARFGDKAYNISDQAIFFRLVEKVNERNKKLGNTKDLINLIPFIQSSPNGLAYYQGNKLENGLPPTQADVAADPALGNESPEIPESAQELAAQLQRALPNAEFLELMATNFWQAHAEFLENQGPAGLPGDQWSEFAFLVNYLNATVFDANAVTGGYDWHSSLDRSSLVGMNLLPNAFHPLVDDITKFNAKVEKVQLDEKTSRLKLHWRANYTDPELESQSFDYAILSPTMPAVQKLRLPGLPFAMRNAVDSMPYASACKVALEYRTRFWEKFDNPIYGSCSTSTDIPGIGSVCYPSSNINGSGPASLLASYEIGRPYGAEWAGIPEEQHVQYVIDAMIDIHGEVARREFTGKCKRKCWALDEFSNGGWASPTVGNHETYLPSFFETHSHMIFVGEHTSYTHAWIASAIESAVRGSVQLLLELGLIDEAKDVVNTWMARWISVVSDLSKAVVSGASA
Which pentosidine oxidation activity [1] does the source give for B1 here?
The pentosidine oxidation activity was “similarly exhibited pentosidine oxidation activity”.

B2: Amino Acid Oxidase Type VI Derived from Crotalus adamanteus: purchased enzyme manufactured by Merck, SEQ ID NO: 12 (protein, listed as Crotalus adamanteus)
chain: AHDRNPLEECFRETDYEEFLEIAKNGLTATSNPKRVVIVGAGMAGLSAAYVLAGAGHQVTVLEASERVGGRVRTYRKKDWYANLGPMRLPTKHRIVREYIKKFDLKLNEFSQENENAWYFIKNIRKRVREVKNNPGLLEYPVKPSEEGKSAAQLYVESLRKVVEELRSTNCKYILDKYDTYSTKEYLLKEGNLSPGAVDMIGDLLNEDSGYYVSFIESLKHDDIFGYEKRFDEIVGGMDQLPTSMYEAIKEKVQVHFNARVIEIQQNDREATVTYQTSANEMSSVTADYVIVCTTSRAARRIKFEPPLPPKKAHALRSVHYRSGTKIFLTCTKKFWEDDGIHGGKSTTDLPSRFIYYPNHNFTSGVGVIIAYGIGDDANFFQALDFKDCADIVINDLSLIHELPKEDIQTFCHPSMIQRWSLDKYAMGGITTFTPYQFQHFSEALTAPFKRIYFAGEYTAQFHGWIDSTIKSGLTAARDVNRASENPSGIHLSNDNEF
With B2 as the molecule, how does the “specific activity (pentosidine oxidase)” value ([2]; enzyme concentration 1 mg/mL (biuret method), pH 7.5, 100 mM) read?
Its value is 0.555 U/mg.

And the pentosidine oxidase activity [2]?
Its pentosidine oxidase activity is 0.555 U/mL.

B3: Amino Acid Oxidase Type I Derived from Crotalus atrox: purchased enzyme manufactured by Merck, SEQ ID NO: 13 (protein)
chain: AHDRNPLEECFRETDYEEFLEIAKNGLTATSNPKRVVIVGAGMAGLSAAYVLAGAGHQVTVLEASERVGGRVRTYRKKDWYANLGPMRLPTKHRIVREYIKKFDLKLNEFSQENENAWYFIKNIRKRVREVKNNPGLLEYPVKPSEEGKSAAQLYVESLRKVVEELRSTNCKYILDKYDTYSTKEYLLKEGNLSPGAVDMIGDLLNEDSGYYVSFIESLKHDDIFGYEKRFDEIVGGMDQLPTSMYEAIKEKVQVHFNARVIEIQQNDREATVTYQTSANEMSSVTADYVIVCTTSRAARRIKFEPPLPPKKAHALRSVHYRSGTKIFLTCTKKFWEDDGIHGGKSTTDLPSRFIYYPNHNFTSGVGVIIAYGIGDDANFFQALDFKDCADIVINDLSLIHELPKEDIQTFCHPSMIQRWSLDKYAMGGITTFTPYQFQHFSEALTAPFKRIYFAGEYTAQFHGWIDSTIKSGLTAARDVNRASENPSGIHLSNDNEF
modifications: Crotalus atrox
For B3, which “specific activity, as a reference value (pentosidine oxidase)” value ([2]; pH 7.5, 100 mM) is on record?
The value was 0.022 U/mg.

And the pentosidine oxidase activity [2]?
Its pentosidine oxidase activity is 0.022 U/mL.

B4: Lysine Oxidase Derived from Trichoderma viride: purchased enzyme manufactured by Merck, SEQ ID NO: 14 (protein)
chain: MDNVDFAESVRTRWARRLIREKVAKELNILTERLGEVPGIPPPREGRFLGGGYSHDNLPSDPLYSSIKPALLKEAPRAEEELPPRKVCIVGAGVSGLYIAMILDDLKIPNLTYDIFESSSRTGGRLYTHHFTDAKHDYYDIGAMRYPDIPSMKRTFNLFKRTGMPLIKYYLDGENTPQLYNNHFFAKGVVDPYMVSVANGGTVPDDVVDSVGEKLQQAFGYYKEKLAEDFDKGFDELMLVDDMTTREYLKRGGPKGEAPKYDFFAIQWMETQNTGTNLFDQAFSESVIDSFDFDNPTKPEWYCIEGGTSLLVDAMKETLVHKVQNNKRVEAISIDLDAPDDGNMSVKIGGKDYSGYSTVFNTTALGCLDRMDLRGLNLHPTQADAIRCLHYDNSTKVALKFSYPWWIKDCGITCGGAASTDLPLRTCVYPSYNLGDTGEAVLLASYTWSQDATRIGSLVKDAPPQPPKEDELVELILQNLARLHAEHMTYEKIKEAYTGVYHAYCWANDPNVGGAFALFGPGQFSNLYPYLMRPAAGGKFHIVGEASSVHHAWIIGSLESAYTAVYQFLYKYKMWDYLRLLLERWQYGLQELETGKHGTAHLQFILGSLPKEYQVKIV
modifications: Trichoderma viride
For B4, which “specific activity, as a reference value (pentosidine oxidase)” value ([2]; pH 7.5, 100 mM) is on record?
Its value is 0.063 U/mg.

What about the pentosidine oxidase activity [2] of the same molecule?
Its pentosidine oxidase activity is 0.063 U/mL.
